Experiment [1] has as its system ENaC. The experiment is described as follows: Amiloride-sensitive short circuit current in FRT epithelia with ENaC: Nedd4-2 dose response with SGK, SGKY298A or GFP. The note with it: FRT epithelia with α-, β-, γENaC, increasing amounts of Nedd4-2 (0–0.2 µg), no SGK; amiloride 10 µM; n = 18. The class given is cell-based. The protocol:
To test the hypothesis that the interaction of the Nedd4-2 WW-domains with the SGK PY motif is required for SGK to influence Nedd4-2 function, we co-expressed α-, β- and γENaC in FRT epithelia with either wild type SGK or SGKY298A along with increasing amounts of Nedd4-2, and measured the amiloride-sensitive short circuit current.
Figure 4 The SGK PY motif is necessary for SGK to inhibit Nedd4-2. Amiloride-sensitive short-circuit sodium current (relative to 0 µg of Nedd4-2) in FRT cells 48 hr after transfection with α-, β- and γENaC and SGK (closed circles) or SGKY298A (open circles) or GFP (closed squares), in the presence of increasing amounts of Nedd4-2, n = 18. Nedd4-2 is expressed as a fraction of the amount of ENaC cDNA. Expression of SGK and SGKY298A was reported in Figure 1B of Snyder et al..
Fischer rat thyroid (FRT) cells were grown on permeable filter supports (Snapwell™, Corning USA or Millicell PCF, both with […] pore size, 12 mm diameter) in F-12 Coon's media with 5% fetal calf serum (Sigma), 100 U/ml penicillin, and 100 µg/ml streptomycin at 37°C. One day after seeding, cells were cotransfected with α-, β- and γENaC (0.07 µg each), 0.6 µg wildtype or mutant SGK, and 0–0.2 µg Nedd4-2 (Fig. 4 only). Total DNA was held constant (1 µg/millicell) using cloning vector DNA. The plasmids were mixed with Lipofectamine 2000 (Invitrogen) or TFX 50 (Promega, Madison, WI; 7.9 µg/millicell) in serum free F12 Coon's media for 15 minutes and transferred to the apical surface of the monolayer. One-six hours later, the apical media was replaced with F-12 Coon's media containing 5% fetal calf serum and amiloride (10 µM). Short-circuit current was measured […] after transfection in modified Ussing chambers connected to a voltage clamp (South Campus Electronics, Dunedin, New Zealand or Warner Instruments). The apical and basolateral surfaces were bathed in (in mM) 135 NaCl, 1.2 CaCl2, 1.2 MgCl2, 2.4 K2HPO4, 0.6 KH2PO4, 10 HEPES, pH 7.4, at 37°C and bubbled with O2. Amiloride-sensitive short-circuit current (Isc-amiloride) was determined as the difference in current with and without amiloride (10 µM) in the apical bathing solution. Data are presented as relative Isc-amiloride (Isc-amiloride relative) that was obtained by normalizing the Isc-amiloride to that of control cells transfected with αβγENaC in the same experiment. Transepithelial resistance (Rt) was monitored by applying repetitive voltage potential pulses (5 mV for 1 sec at 120 sec intervals) across the epithelium.

Experiment [2] has as its system SGK. In words: Co-immunoprecipitation of Nedd4-2 with SGK in COS7 cells. Format: binding, human. As to conditions: Nedd4-2-FLAG and SGK-HA, IP anti-HA, blot anti-FLAG, data not shown. On the procedure: Co-immunoprecipitation was used to characterize an in vitro interaction between Nedd4-2 and SGK. Nedd4-2-FLAG and SGK-HA were co-expressed in COS7 cells, SGK was immunoprecipitated with anti-HA, and the presence of Nedd4-2 in the immunoprecipitates was assessed by western blotting with anti-FLAG. […] We reasoned that SGK would be rapidly turned over in the cells, and this would be enhanced by overexpression of active Nedd4-2, since Nedd4-2 is known to induce degradation of SGK [23]. Therefore we co-expressed a stable form of SGK (ΔN60SGK-HA, lacking the first 60 amino acids of SGK), together with a ligase-dead form of Nedd4-2 (Nedd4-2C821A–FLAG).
(A) ΔN60SGK-HA and Nedd4-2C821A–FLAG were transiently co-expressed, or expressed alone as indicated, in COS7 cells. Complexes were immunoprecipitated with anti-HA antibody. Immunoprecipitates were analyzed by 10% SDS-PAGE and sequential western blotting (IB) with anti-FLAG antibody (Nedd4-2) and anti-HA antibody (ΔN60SGK). Expression of the proteins (5% input) is shown in the bottom panel, n = 3. Either ΔN60SGK-HA (B, E) or SGK-FLAG (C, D) was transiently expressed in COS7 cells. […] Bound SGK was analyzed by immunostaining with anti-FLAG/HA antibody. […]
COS7 cells were co-transfected with ΔN60SGK-HA and Nedd4-2C821A-FLAG. […] The beads were washed four times in T-TBS and analysed by SDS-PAGE and Western blotting with anti-FLAG (Sigma).

The text below walks through data of paper PMC2921341, “Interaction of Serum- and Glucocorticoid Regulated Kinase 1 (SGK1) with the WW-Domains of Nedd4-2 Is Required for Epithelial Sodium Channel Regulation” (PLoS ONE, 2010).

B1: Nedd4-2: ubiquitin ligase, Nedd4-family member, human (protein)
chain: MERPYTFKDFLLRPRSHKSRVKGFLRLKMAYMPKNGGQDEENSDQRDDMEHGWEVVDSNDSASQHQEELPPPPLPPGWEEKVDNLGRTYYVNHNNRTTQWHRPSLMDVSSESDNNIRQINQEAAHRRFRSRRHISEDLEPEPSEGGDVPEPWETISEEVNIAGDSLGLALPPPPASPGSRTSPQELSEELSRRLQITPDSNGEQFSSLIQREPSSRLRSCSVTDAVAEQGHLPPPSAPAGRARSSTVTGGEEPTPSVAYVHTTPGLPSGWEERKDAKGRTYYVNHNNRTTTWTRPIMQLAEDGASGSATNSNNHLIEPQIRRPRSLSSPTVTLSAPLEGAKDSPVRRAVKDTLSNPQSPQPSPYNSPKPQHKVTQSFLPPGWEMRIAPNGRPFFIDHNTKTTTWEDPRLKFPVHMRSKTSLNPNDLGPLPPGWEERIHLDGRTFYIDHNSKITQWEDPRLQNPAITGPAVPYSREFKQKYDYFRKKLKKPADIPNRFEMKLHRNNIFEESYRRIMSVKRPDVLKARLWIEFESEKGLDYGGVAREWFFLLSKEMFNPYYGLFEYSATDNYTLQINPNSGLCNEDHLSYFTFIGRVAGLAVFHGKLLDGFFIRPFYKMMLGKQITLNDMESVDSEYYNSLKWILENDPTELDLMFCIDEENFGQTYQVDLKPNGSEIMVTNENKREYIDLVIQWRFVNRVQKQMNAFLEGFTELLPIDLIKIFDENELELLMCGLGDVDVNDWRQHSIYKNGYCPNHPVIQWFWKAVLLMDAEKRIRLLQFVTGTSRVPMNGFAELYGSNGPQLFTIEQWGSPEKLPRAHTCFNRLDLPPYETFEDLREKLLMAVENAQGFEGVD
modifications: left off: FLAG, C-terminal, kept
notes: ubiquitin ligase, Nedd4-family member, human
On to B1, for which, in experiment [1], the “inhibition of ENaC by Nedd4-2 in the absence of SGK (in words)” value is on record as “inhibited ENaC in a dose-dependent manner”. Moreover, the “co-immunoprecipitation with SGK (in words)” value in experiment [2] is reported as “co-precipitated with SGK but the amount of Nedd4-2 co-precipitated was small”.
